In publication PMC6033896, “Discovery of Mcl-1 inhibitors from integrated high throughput and virtual screening” (Scientific Reports, 2018) one finds Kd data, which are given here for one substance.

This test addresses recombinant Bfl-1 protein (UniProt Q16548). The test is described as follows: fluorescence polarisation; direct binding of the fluorescent Bid probe to recombinant protein; Ex 485 nm, Em 530 nm, room temperature; buffer of the Kd determination not told apart from the two competitive assay buffers. (In fluorescence polarisation assays a small probe gives low polarisation when free and higher when bound to something large.)

recombinant Bfl-1 protein, sequence (Q16548 whole entry): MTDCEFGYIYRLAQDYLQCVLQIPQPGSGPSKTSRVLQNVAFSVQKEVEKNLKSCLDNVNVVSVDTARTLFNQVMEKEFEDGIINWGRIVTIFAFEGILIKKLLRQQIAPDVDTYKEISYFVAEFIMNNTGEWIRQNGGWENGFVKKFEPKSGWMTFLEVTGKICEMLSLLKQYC

Regarding fluorescent labelled Bid BH3 peptide, the Kd (commonly a measure of binding affinity in units of concentration) is 0.3 nM.
